Experimental data from patent US20250382359A1 (BYOMASS, published 2025).

How the values were obtained:
[1] = biological target: T1, GDF15 (ligand used in the GFRAL/RET cell assays) (UniProt Q99988 197-308, limits assumed); assay: cell-based or functional assay
T1 sequence (looked up): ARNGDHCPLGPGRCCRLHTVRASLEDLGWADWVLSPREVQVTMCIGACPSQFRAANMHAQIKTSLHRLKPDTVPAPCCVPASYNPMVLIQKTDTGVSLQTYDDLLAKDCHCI

[2] = biological target: T2, GDNF (UniProt P39905 78-211); assay: BLI Octet; IgG on sensor
T2 sequence (looked up): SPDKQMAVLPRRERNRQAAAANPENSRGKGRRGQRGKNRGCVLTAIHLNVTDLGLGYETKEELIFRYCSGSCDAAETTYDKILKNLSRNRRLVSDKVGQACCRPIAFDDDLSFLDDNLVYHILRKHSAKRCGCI

[3] = biological target: GDF8 (UniProt O14793 267-375); assay: BLI Octet; IgG on sensor
[4] = biological target: T3, GDF11 (UniProt O95390 299-407); assay: BLI Octet; IgG on sensor
T3 construct: Also used as ligand in the Activin 2B receptor/SMAD reporter assay
T3 sequence (O95390 299-407 limits assumed): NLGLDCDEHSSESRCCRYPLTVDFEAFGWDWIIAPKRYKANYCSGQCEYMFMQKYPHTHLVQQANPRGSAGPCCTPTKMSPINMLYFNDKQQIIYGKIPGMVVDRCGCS

[5] = biological target: T4, Human Activin A Fc (human, UniProt P08476 311-426); assay: BLI Octet; IgG on sensor
T4 construct: not shown: Fc part
T4 sequence (looked up): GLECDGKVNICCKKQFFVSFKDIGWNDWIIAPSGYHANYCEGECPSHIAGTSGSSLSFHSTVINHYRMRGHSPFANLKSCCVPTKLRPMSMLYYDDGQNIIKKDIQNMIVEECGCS

[6] = biological target: T5, Human Activin B (human, UniProt P09529 293-407); assay: BLI Octet; IgG on sensor
T5 sequence (looked up): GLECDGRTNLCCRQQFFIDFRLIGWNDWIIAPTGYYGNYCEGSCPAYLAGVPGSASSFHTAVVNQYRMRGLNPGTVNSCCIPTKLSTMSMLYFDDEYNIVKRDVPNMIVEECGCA

[7] = biological target: T6, Human BMP10 (human, UniProt O95393 317-424); assay: BLI Octet; IgG on sensor
T6 sequence (looked up): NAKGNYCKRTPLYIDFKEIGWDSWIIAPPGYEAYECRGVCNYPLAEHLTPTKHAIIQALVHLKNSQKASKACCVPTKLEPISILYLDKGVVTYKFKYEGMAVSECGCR

[8] = biological target: T7, Human GDF15 Fc (human, UniProt Q99988 195-308, limits assumed, biotinylated (EZ-Link Sulfo-NHS-Biotinylation Kit) in the SPR assay); assay: BLI Octet; IgG on sensor, 100 nM antigen (avid)
T7 construct: also called human GDF15-Fc fusion; biotinylated Human GDF15 Fc; not shown: Fc part
T7 sequence: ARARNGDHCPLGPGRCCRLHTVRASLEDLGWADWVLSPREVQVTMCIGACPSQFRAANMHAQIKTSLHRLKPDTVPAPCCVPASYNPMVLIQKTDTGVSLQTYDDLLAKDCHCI
Procedure: Briefly, ForteBio affinity measurements were performed by loading IgGs on-line onto AHC sensors. Sensors were equilibrated off-line in assay buffer for 30 min and then monitored on-line for 60 seconds for baseline establishment. Sensors with loaded IgGs were exposed to 100 nM antigen for 3 minutes, and afterwards were transferred to assay buffer for 3 min for off-rate measurement. All kinetics were analyzed using the 1:1 binding model.

[9] = biological target: T8, Cyno GDF15 Fc (cyno, UniProt G7PWZ3 193-308, limits assumed); assay: BLI Octet; antigen on sensor, 100 nM Fab (monovalent)
T8 construct: also called cyno GDF15-Fc fusion; not shown: Fc part
T8 sequence: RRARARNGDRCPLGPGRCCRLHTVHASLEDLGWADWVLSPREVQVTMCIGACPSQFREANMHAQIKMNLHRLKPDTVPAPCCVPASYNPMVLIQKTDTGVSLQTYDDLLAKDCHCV

[10] = biological target: T9, Mouse GDF15 Fc (mouse, UniProt Q9Z0J7 189-303, limits assumed); assay: as above
T9 construct: also called mouse GDF15-Fc fusion; not shown: Fc part
T9 sequence (looked up): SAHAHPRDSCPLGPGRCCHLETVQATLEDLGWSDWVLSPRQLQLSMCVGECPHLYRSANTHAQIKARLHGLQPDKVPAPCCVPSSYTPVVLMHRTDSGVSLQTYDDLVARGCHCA

[11] = biological target: T7, Human GDF15 Fc; assay: SPR Biacore 8K; biotinylated antigen captured, Fab analyte
Procedure: Kinetic analysis was conducted at 25° C. in HBS-EP+running buffer (10 mM HEPES pH 7.4, 150 mM NaCl, 3 mM EDTA, 0.05% Surfactant P20) using a Biacore 8K optical biosensor (Cytiva, Marlborough, MA). The sample compartment was maintained at 10° C. for the duration of the experiment. The Biacore 8K can analyze up to 8 separate interactions in a single cycle.
Each experiment cycle began with an injection (300 s at 2 μL/min) overflow cells 1 and 2 of a 1:100 solution of biotin CAPture reagent (Cytiva) in running buffer. This was followed by an injection (45 s at 10.0 μL/min) of biotinylated human GDF15 (5 nM) overflow cell 2. […] The dissociation of the antibodies were monitored for 3420 s. Finally, an injection (120 s at 10 μL/min) of regeneration solution (6 M Guanidine-HCl in 0.25 M NaOH) overflow cells 1 and 2 prepared the sensor surface for another cycle. Several blank buffer samples were injected (300 s at 30 μL/min) overflow cells 1 and 2 throughout the duration of the experiment and used for reference surface subtraction—each were monitored for the same amount of dissociation time (3420 s) and regenerated under the same conditions as those for the Fab sample injections.

[12] = biological target: T10, GDF10 (UniProt P55107 369-478); assay: BLI Octet; IgG on sensor
T10 sequence (looked up): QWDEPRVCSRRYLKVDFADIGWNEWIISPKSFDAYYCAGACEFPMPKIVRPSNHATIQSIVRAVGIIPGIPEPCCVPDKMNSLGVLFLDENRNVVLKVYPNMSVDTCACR

[13] = biological target: T11, Human BMP9 (human, UniProt Q9UK05 320-429); assay: BLI Octet; IgG on sensor
T11 sequence (looked up): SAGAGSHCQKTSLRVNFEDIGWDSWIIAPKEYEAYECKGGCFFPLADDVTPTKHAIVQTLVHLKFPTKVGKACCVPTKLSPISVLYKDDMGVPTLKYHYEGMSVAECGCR

B1: GDF15 antibody agent Clone F, IgG (antibody, V domains shown)
VH: QVQLVQSGAEVKKPGSSVKVSCKASGGTFGGYAISWVRQAPGQGLEWMGGIIPPYATANYAQKFQGRVTITADESTSTAYMELSSLRSEDTAVYYCARGVGTTHLDVWGQGTMVTVSS
VL: not shown
GDF15-GFRAL RET pERK IC50 (pM) [1]: 34.9 pM
GDF15-GFRAL-RET Luciferase IC50 (pM) [1]: 91.3 pM
binding result [2]: no binding (tested: 100 nM)
binding result [3]: no binding (tested: 100 nM)
binding result [4]: no binding (tested: 100 nM)
binding result [5]: no binding (tested: 100 nM)
binding result [6]: no binding (tested: 100 nM)
binding result [7]: no binding (tested: 100 nM)
Kd [8]: 0.244 nM

B2: GDF15 antibody agent Clone F, Fab (Fab, V domains shown)
VH: QVQLVQSGAEVKKPGSSVKVSCKASGGTFGGYAISWVRQAPGQGLEWMGGIIPPYATANYAQKFQGRVTITADESTSTAYMELSSLRSEDTAVYYCARGVGTTHLDVWGQGTMVTVSS
VL: not shown
notes: Fab; CH1 and CL of the Fab not specified; also called Fab of Clone F
GDF15 GFRAL RET pERK Fab IC50 pM [1]: 11.2 pM
Kd [9]: 0.553 nM
Kd [10]: 26.1 nM

B3: GDF15 antibody agent Clone G, Fab (Fab, V domains shown)
VH: QVQLVQSGAEVKKPGSSVKVSCKASGGTFQGYAISWARQAPGQGLEWMGGIIPPYATANYAQKFQGRVTITADESTSTAYMELSSLRSEDTAVYYCARGVGELHLDVWGQGTMVTVSS
VL: not shown
notes: Fab; CH1 and CL of the Fab not specified; also called Fab of Clone G
GDF15 GFRAL RET pERK Fab IC50 pM [1]: 33.2 pM
Kd [9]: 0.474 nM

B4: GDF15 antibody agent Clone N, Fab (Fab, V domains shown)
VH: QVQLVQSGAEVKKPGASVKVSCKASGYTFTDYGIFWVRQAPGQGLEWMGWITAYSGDTHYAQKLQGRVTMTTDTSTSTAYMELRSLRSDDTAVYYCVRDTQYGGSPYWGQGTLVTVSS
VL: EIVMTQSPATLSVSPGERATLSCRASQSVSSNLAWYQQKPGQAPRLLIYGASTRATGIPARFSGSGSGTEFTLTISSLQSEDFAVYYCQQYNNWPITFGGGTKVEIK
notes: Fab; CH1 and CL of the Fab not specified; also called Fab of Clone N
GDF15 GFRAL RET pERK Fab IC50 pM [1]: 322 pM
Kd [10]: 2.56 nM
Kd [11]: 0.545 nM
koff [11]: 0.00318 s⁻¹
kon [11]: 5.84e+06 M⁻¹ s⁻¹

B5: GDF15 antibody agent Clone I, IgG (antibody, V domains shown)
VH: QVQLVQSGAEVKKPGASVKVSCKASGYTFTDEGINWVRQAPGQGLEWMGWITAYSGDTVYAQKLQGRVTMTTDTSTSTAYMELRSLRSDDTAVYYCARGPGQYADVDVWGQGTMVTVSS
VL: DIQMTQSPSSVSASVGDRVTITCRASQGISSWLAWYQQKPGKAPKLLIYAASSLQSGVPSRFSGSGSGTDFTLTISSLQPEDFATYYCQQANSFPITFGGGTKVEIKR
GDF15-GFRAL RET pERK IC50 (pM) [1]: 34.5 pM
GDF15-GFRAL-RET Luciferase IC50 (pM) [1]: 79.3 pM
binding result [3]: no binding (tested: 100 nM)
binding result [12]: no binding (tested: 100 nM)
binding result [4]: no binding (tested: 100 nM)
binding result [5]: no binding (tested: 100 nM)
binding result [6]: no binding (tested: 100 nM)
binding result [13]: no binding (tested: 100 nM)
binding result [7]: no binding (tested: 100 nM)
Kd [8]: 0.262 nM

B6: GDF15 antibody agent Clone J, IgG (antibody, V domains shown)
VH: QVQLVQSGAEVKKPGASVKVSCKASGYTFTSYGINWVRQAPGQGLEWMGWIDAYSGSTNYAQKLQGRVTMTTDTSTSTAYMELRSLRSDDTAVYYCARGPGQYADVDVWGQGTMVTVSS
VL: DIQMTQSPSSVSASVGDRVTITCRASQGISSWLAWYQQKPGKAPKLLIYAASSLQSGVPSRFSGSGSGTDFTLTISSLQPEDFATYYCQQANSFPITFGGGTKVEIKR
GDF15-GFRAL RET pERK IC50 (pM) [1]: 30.3 pM
GDF15-GFRAL-RET Luciferase IC50 (pM) [1]: 110 pM
binding result [3]: no binding (tested: 100 nM)
binding result [12]: no binding (tested: 100 nM)
binding result [4]: no binding (tested: 100 nM)
binding result [5]: no binding (tested: 100 nM)
binding result [6]: no binding (tested: 100 nM)
binding result [13]: no binding (tested: 100 nM)
binding result [7]: no binding (tested: 100 nM)
Kd [8]: 0.276 nM

B7: GDF15 antibody agent Clone B, Fab (Fab, V domains shown)
VH: QVQLQESGPGLVKPSQTLSLTCTVSGGSISSGGIYWTWIRQHPGKGLEWIGAIAYSGSTYYNPSLKSRVTISVDTSKNQFSLKLSSVTAADTAVYYCARGIEYQHFDYWGQGTLVTVSS
VL: not shown
notes: Fab; CH1 and CL of the Fab not specified; also called Fab of Clone B
GDF15 GFRAL RET pERK Fab IC50 pM [1]: 30.9 pM
Kd [9]: 0.349 nM

B8: GDF15 antibody agent Clone Q, Fab (Fab, V domains shown)
VH: QVQLQESGPGLVKPSQTLSLTCTVSGGSISSGGIYWTWIRQHPGKGLEWIGAIAYSGSTYYNPSLKSRVTISVDTSKNQFSLKLSSVTAADTAVYYCARGIEYQHFDYWGQGTLVTVSS
VL: not shown
notes: Fab; CH1 and CL of the Fab not specified; also called Fab of Clone Q
Kd [9]: 0.327 nM
Kd [10]: 204 nM

B9: GDF15 antibody agent Clone D, Fab (Fab, V domains shown)
VH: QVQLQESGPGLVKPSQTLSLTCTVSGGSINSGGYYWTWIRQHPGKGLEWIGAIYYSGSTVYNPSLKSRVTISVDTSKNQFSLKLSSVTAADTAVYYCARGVEYQHFNEWGQGTLVTVSS
VL: not shown
notes: Fab; CH1 and CL of the Fab not specified; also called Fab of Clone D
GDF15 GFRAL RET pERK Fab IC50 pM [1]: 27 pM
Kd [9]: 0.562 nM
Kd [10]: 157 nM

B10: GDF15 antibody agent Clone A, Fab (Fab, V domains shown)
VH: QVQLQESGPGLVKPSQTLSLTCTVSGGSITSGGSYWSWIRQHPGKGLEWIGAIVYSGSTYYNPSLKSRVTISVDTSKNQFSLKLSSVTAADTAVYYCARGVEYQHFDYWGQGTLVTVSS
VL: not shown
notes: Fab; CH1 and CL of the Fab not specified; also called Fab of Clone A
GDF15 GFRAL RET pERK Fab IC50 pM [1]: 26.5 pM
Kd [9]: 0.536 nM

B11: GDF15 antibody agent Clone R, Fab (Fab, V domains shown)
VH: QVQLQESGPGLVKPSQTLSLTCTVSGGSISSGGIYWTWIRQHPGKGLEWIGAIAYSGSTYYNPSLESRVTISVDTSKNQFSLKLSSVTAADTAVYYCARGIEYQHFDYWGQGTLVTVSS
VL: not shown
notes: Fab; CH1 and CL of the Fab not specified; also called Fab of Clone R
Kd [9]: 0.366 nM
Kd [10]: 234 nM

B12: GDF15 antibody agent Clone C, Fab (Fab, V domains shown)
VH: QVQLQESGPGLVKPSQTLSLTCTVSGGSISSGGYYWSWIRQHPGKGLEWIGAIVYSGHTYYNPSLKSRVTISVDTSKNQFSLKLSSVTAADTAVYYCARGVEYQHFSLWGQGTLVTVSS
VL: not shown
notes: Fab; CH1 and CL of the Fab not specified; also called Fab of Clone C
GDF15 GFRAL RET pERK Fab IC50 pM [1]: 36.8 pM
Kd [9]: 0.36 nM
Kd [10]: 156 nM
